Source: paper PMC7515736, “Genome-wide binding of [sequence]3 and AGAMOUS complexes determined by sequential DNA-affinity purification sequencing”

B1: KNU -10 (96 bp) (dsDNA)
DNA 1: GAAAGAGGGTAAGAGAAACATAGAAACCTTCCATGTTTGGCAATTTCATCTTGGACTCTCTCTTGTCTTCTTTGTGCATCACAAGAACAACAAATA
DNA 2: TATTTGTTGTTCTTGTGATGCACAAAGAAGACAAGAGAGAGTCCAAGATGAAATTGCCAAACATGGAAGGTTTCTATGTTTCTCTTACCCTCTTTC
B2: KNU -10 probe (86 bp) (dsDNA)
DNA 1: GGTAAGAGAAACATAGAAACCTTCCATGTTTGGCAATTTCATCTTGGACTCTCTCTTGTCTTCTTTGTGCATCACAAGAACAACAA
DNA 2: TTGTTGTTCTTGTGATGCACAAAGAAGACAAGAGAGAGTCCAAGATGAAATTGCCAAACATGGAAGGTTTCTATGTTTCTCTTACC
B3: KNU +10 (96 bp) (dsDNA)
DNA 1: AAACATAGAAACCTTCCATGTTTGGCAATTTCATCTTGGAAGTCAGTAGCTCTTGATTCACTCTCTCTTGTCTTCTTTGTGCATCACAAGAACAAC
DNA 2: GTTGTTCTTGTGATGCACAAAGAAGACAAGAGAGAGTGAATCAAGAGCTACTGACTTCCAAGATGAAATTGCCAAACATGGAAGGTTTCTATGTTT
B4: KNU -5 (96 bp) (dsDNA)
DNA 1: AGAGGGTAAGAGAAACATAGAAACCTTCCATGTTTGGCAATTTCATCTTGGAACTTACTCTCTCTTGTCTTCTTTGTGCATCACAAGAACAACAAA
DNA 2: TTTGTTGTTCTTGTGATGCACAAAGAAGACAAGAGAGAGTAAGTTCCAAGATGAAATTGCCAAACATGGAAGGTTTCTATGTTTCTCTTACCCTCT
B5: KNU WT (dsDNA)
DNA 1: GGTAAGAGAAACATAGAAACCTTCCATGTTTGGCAATTTCATCTTGGAACTTGATTCACTCTCTCTTGTCTTCTTTGTGCATCACAAGAACAACAA
DNA 2: TTGTTGTTCTTGTGATGCACAAAGAAGACAAGAGAGAGTGAATCAAGTTCCAAGATGAAATTGCCAAACATGGAAGGTTTCTATGTTTCTCTTACC
B6: KNU +10 probe (106 bp) (dsDNA)
DNA 1: GGTAAGAGAAACATAGAAACCTTCCATGTTTGGCAATTTCATCTTGGAAGTCAGTAGCTCTTGATTCACTCTCTCTTGTCTTCTTTGTGCATCACAAGAACAACAA
DNA 2: TTGTTGTTCTTGTGATGCACAAAGAAGACAAGAGAGAGTGAATCAAGAGCTACTGACTTCCAAGATGAAATTGCCAAACATGGAAGGTTTCTATGTTTCTCTTACC
B7: KNU +5 (96 bp) (dsDNA)
DNA 1: AGAGAAACATAGAAACCTTCCATGTTTGGCAATTTCATCTTGGAAGTCAGCTTGATTCACTCTCTCTTGTCTTCTTTGTGCATCACAAGAACAACA
DNA 2: TGTTGTTCTTGTGATGCACAAAGAAGACAAGAGAGAGTGAATCAAGCTGACTTCCAAGATGAAATTGCCAAACATGGAAGGTTTCTATGTTTCTCT

Experiments:
[1] = target: SEP3Δtet (SEP3 splice variant);AG (AGAMOUS) (Arabidopsis thaliana;Arabidopsis …, UniProt F4I972;P17839 1-237;1-252, del161-174|); assay: EMSA; dimer; EMSA as in the authors' ref. 20 (buffer, salt, pH, temperature not given); Cy5 probes; unpurified wheat germ TnT proteins; details: protein: ivt;ivt; tags: C-terminal 3xFLAG;C-terminal 5xMyc; copies: 1;1; label: Cy5; blunt
Sequence of SEP3Δtet (SEP3 splice variant);AG (AGAMOUS) (P17839 other isoform, or with tags, fused parts or gaps del161-174| | mutant, chain 1 of 2): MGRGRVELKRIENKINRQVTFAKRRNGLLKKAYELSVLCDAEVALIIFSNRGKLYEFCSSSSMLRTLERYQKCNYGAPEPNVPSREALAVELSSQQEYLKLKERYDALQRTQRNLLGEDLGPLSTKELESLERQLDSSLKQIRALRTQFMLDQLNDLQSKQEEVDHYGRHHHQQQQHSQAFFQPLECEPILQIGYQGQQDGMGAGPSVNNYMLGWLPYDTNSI
Sequence of SEP3Δtet (SEP3 splice variant);AG (AGAMOUS) (P17839 whole entry, stated change not applied, chain 2 of 2, canonical isoform): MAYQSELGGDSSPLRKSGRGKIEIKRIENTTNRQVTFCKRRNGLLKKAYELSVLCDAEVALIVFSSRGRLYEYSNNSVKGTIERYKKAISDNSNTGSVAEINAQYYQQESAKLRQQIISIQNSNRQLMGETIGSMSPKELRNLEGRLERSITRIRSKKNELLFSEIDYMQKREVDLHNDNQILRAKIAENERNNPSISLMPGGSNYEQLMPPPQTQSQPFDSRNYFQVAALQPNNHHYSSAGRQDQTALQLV

SEP3 (…3);AG (AGAMOUS) = SEP3 (…3);AG (AGAMOUS) (Arabidopsis thaliana;Arabidopsis …, UniProt O22456;P17839 1-251;1-252, |); assay: EMSA; tetramer; EMSA as in the authors' ref. 20 (buffer, salt, pH, temperature not given); Cy5 probes; unpurified wheat germ TnT proteins; details: protein: ivt;ivt; tags: C-terminal 3xFLAG;C-terminal 5xMyc; copies: 1;1; label: Cy5; blunt
Sequence of SEP3 (…3);AG (AGAMOUS) (O22456 whole entry, chain 1 of 2): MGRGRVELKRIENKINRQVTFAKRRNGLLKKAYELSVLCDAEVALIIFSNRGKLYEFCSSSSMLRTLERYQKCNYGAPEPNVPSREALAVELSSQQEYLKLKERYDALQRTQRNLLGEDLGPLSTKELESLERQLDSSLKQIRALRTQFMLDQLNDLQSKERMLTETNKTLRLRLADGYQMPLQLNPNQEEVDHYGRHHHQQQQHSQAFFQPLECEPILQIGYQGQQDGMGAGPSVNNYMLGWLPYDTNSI
Sequence of SEP3 (…3);AG (AGAMOUS) (P17839 whole entry, chain 2 of 2): as the sequence (P17839 whole entry, stated change not applied, chain 2 of 2, canonical isoform) above

Binder	binding result [1]	binding result (SEP3 (…3);AG (AGAMOUS))
B1	binds	binds
B2		binds
B3	binds	binds
B4	binds	
B5	binds	binds
B6		binds
B7	binds	
